# Experimental data published in the DeepSol protein solubility set.
# Experiment: soluble on expression in E. coli; label from the status in PepcDB or PDB records
row,Sequence,soluble on expression in E. coli
1,MAHHHHHHMGIYIFCLFPKGGRESKWGKPTITTKKVQGMPFPHPSHHHHHYHQKQQKTHHCHPRCTLVFLRQARAHKAITPPDVQRRTQRLNAQGKTTKKKSYDDGPPFFLFEKKKKRKAERHKEKGEKEGKGNVNTYRIVKEKEKVNKYLIYFYNNNNNYYYTYVCVYIHTTT,not soluble
2,RCPKGSKAYGSHCYALFLSPKSWTDADLACQKRPSGNLVSVLSGAEGSFVSSLVKSIGNSYSYVWIGLHDPTQGTEPNGEGWEWSSSDVMNYFAWERNPSTISSPGHCASLSRSTAFLRWKDYNCNVRLPYVCKFTD,soluble
3,MTQRLQLTWYNKDKALIPTETGKYGYTWVDPSDPRYCETHTLIFDDYVQGAQTPKSDEFECSERADLQPQDDNLLILGESGDVLEALTRVPELAEKYVGKVKLVYIDPPFNTAQTFASYEDNLEHSIWLTMMRDRLIHMKKLLTNDGSIWVHLDDVEVHRMRVLMDEVFGADRFIATVAWEKDKGRRNDTDISGAHDLILIYAPSGRQWKNVRNLLPRLASQDARYQNPDNDPRGPWLQGDNGTAKSGTEKNRFPVTLPSGRVVTPKGRYWRFSPEGLAEARADGRVWFGKDGDSLPVIKRYLTDVQTGLVPRTWWNADEAGHNQEAKRDHLNKMFPEVENP,not soluble
4,MSLNDSRLLPVGSSPLEVAAARACAEIERTPVNIRALWNPDTCPENLLPWLAWAFSVDRWDENWPEGTKRAVIRDAYFIHCHKGTIGAIRRVVEPLGYVINVTEWWESSDPPGTFRLDIGVLESGITEEMYFEMERLIADAKPASRHLTGLNIVQDIPGYLYTGGVSCDGDIITVYPGEGHHHHHH,not soluble
5,MSLRFDGKVAIVTGAGGGLGKTYALELAKRGCKVVVNDLGGDRHGTSSSSSMADKVVQEIKSAGGQAVANYDSVEFGDKIVKTAIDNFGRIDIVINNAGILRDVSFLKMTELDWDLIFKVHVKGAYAVTKAAWPYMRDQKYGRIVVTSSNAGVHGNFGQANYAAAKSALIGLSNSLAQEGAKYNILANTLVPTAGSRLTETVMPQNLVDALKPDYVTPLVTYMVHDSFEESGKVFEAGAGWYGTIQYYKSKGKVISHASADDIAKNWSTITNMNGAEYIGTITEQSARLVSILEEHEASSGSSSASSGASSGGAFPSNIRSSALFQEMADGVKADPTAVKTLKSIVLYIITDGKNELGKFTLDFKSASPSVYLGDVKNGEKANATVTVADSDFVDIAAGKLNAQKAFMSGKLKVKGNVMLLQKLQTVLEKAKKSKL,not soluble
6,VVRRLTSPRLEFEAAAIYEYPEHLRSFLNDLPTRPGVYLFHGESDTMPLYIGKSVNIRSRVLSHLRTPDEAAMLRQSRRISWICTAGEIGALLLEARLIKEQQPLFNKRLRRNRQLCALQLNEKRVDVVYAKEVDFSRAPNLFGLFANRRAALQALQTIADEQKLCYGLLGLEPLSRGRACFRSALKRCAGACCGKESHEEHALRLRQSLERLRVVCWPWQGAVALKEQHPEMTQYHIIQNWLWLGAVNSLEEATTLIRTPAGFDHDGYKILCKPLLSGNYEITELDPANDQRAS,soluble
7,MSLSPVPPPLVRVAPSLFLGSARAAGAEEQLARAGVTLCVNVSRQQPGPRAPGVAELRVPVFDDPAEDLLAHLEPTCAAMEAAVRAGGACLVYCKNGRSRSAAVCTAYLMRHRGLSLAKAFQVGGPLGGRCFERGVSSGDEFSGRGRLRDWDRHFREGRVSLMVKSARPVAEPNPGFWSQLQKYEEALQAQSEGHHHHHH,not soluble
8,MGVHVVLYQPEIPANTGNIARTCAATGTELHLIRPLGFSTDDKMLKRAGLDYWQHVKITYYDSIEEFYEKNKDGEFFYLTKYGEKAHTAFDYSKREKDYYFVFGRETNGLPANVIEENFDHCLRIPMTDKVRSLNLSNTAAILIYEAFRQQNYPGLDLEIVY,not soluble
9,MSLSELIKRLITAMTLCLTALLVHAQEWTKEDSLRLRKLLDSDQELNLNQDAVRQIDFGSAVGTPRMSVEKKWMLPDESLPEALPKPKVVLSLMPYKANTPYNWDPVFQKKIRMDKNTWRGDPHYEMRHQRSYSNWAHNPMAGGVRKSLEEIRASGVRFRQLSERANGMMVNSVVMDSPIPLFGGSGVYINGGTIGGLDLMAVFTKNFWDKKGKERRERTLEVLRTYGDSTTVLINRPIEQIAREGHHHHHH,not soluble
10,MIISAASDYRAAAQRTLPPFLFHYIDGGAYAEYTLRRNVEDLSQVALRQRVLKNMSDLSLETTLFNETLSMPVALAPVGLCGMYARRGEVQAAAAADAKGIPFTLSTVSVCPIEEVAPTIKRPMWFQLYVLRDRGFMRNALERAKAAGCSTLVFTVDMPTPGARYRDAHSGMSGPNAAMRRYWQAVMHPKWAWDVGLNGRPHDLGNISAYLGKPTGLEDYIGWLANNFDPSISWKDLEWIREFWDGPMVIKGILDPEDARDAVRFGADGIVVSNHGGRQLDGVLSSARALPAIADAVKGDIAILADSGIRNGLDVVRMIALGADTVLLGRAYLYALATAGKAGVANLLDLIEKEMKVAMTLTGAKSISEISGDSLVQELGKSLPAALAPMSKGDAA,not soluble
11,MRIALIFLVLLVSFASSCKNFDKYMNMFCRYGLEQSPCTVEDYSTYKSACCAMKNNCSYKEFPKDDVCCFTVECLKRCFPEKLLKNDKVY,not soluble
12,MARKRRAARVKDKWTLKKWFTLIAPEYFGMAELGETPADDASKVVGRTVETTLAELTNDYSNQNTYKKLIFKVYRVAGDNAYTKFWRFELTREYLNSLTRRRTSKIEDIVDVTTADGYKLRVKSVVFTVRRCKTSQKRAIRAIMRQIVVEKASSLNFVQFLQECVLGKVPAEIYKNAKKIYPIRRVEIRKIELLAEPAEAETQPAVAEAVALEHHHHHH,soluble
13,MGSDKIHHHHHHMIFVPNENNDPRVNLAIETYLLTEMPLDEPILLFYINEPSIIIGRNQNTIEEINKEYVDEHGIHVVRRLSGGGAVYHDHGNLNFSFIMPDDGNSFRDFAKVTQPIIQALHDLGVEGAELKGRNDLVINDMKFSGNAMYATNGRMFAHGTLMFDSDIDEVVNTLKVRKDKIESKGIKSVRSRVTNIKPFLSEDKQEMTTEEFRQEILLKIFGVDSIDQVKTYELTDQDWAAINKISEQYYRNWDWNYGKSPAFNLERRHRFPIGSIEMKMNVADGAIQEIKIFGDFFGLGEIKDVEDILTGVKYDKASLEEAIDQIDVKKYFGNIEKEDLLGLIY,not soluble
14,AHHHHHHGSQRALVTLTPSESKRLIAKAVVAMDEVQKALKNGFIYIATGTTAAYIAEELLGEKIEKEKWTVGTISKGRTCVTPKTTWPKHLVLYKGKLFEGEPLEALKEMGPEDVFIKGGNAIDINWNVAVFAAAPDGGTIGKTFGWTITKGVFTITPISLEKFVPTPVKESAKLTGIYSFNWGTGLYAALVPIPHAHPVTEVEAYRILAGVEAIPIAAGGAGGAEGSVTLVLEGDDENMEKAKEITKAVKGEPPLEPYTEDCSICPFAKICGLGSGSF,not soluble
15,MDRRFPPFSPFFNHGRRFFDDVDFDRHMIRPYWADQTMLTGHRVGDAIDVVNNDQEYNVSVDVSQFEPEELKVNIVDNQLIIEGKHNEKTDKYGQVERHFVRKYNLPTGVRPEQIKSELSNNGVLTVKYEKNQEQQPKSIPITIVPKRN,not soluble
16,GPHMGGSMFSWLKKGGARGQRPEAIRTVTSSLKELYRTKLLPLEEHYRFGSFHSPALEDADFDGKPMVLVAGQYSTGKTSFIQYLLEQEVPGSRVGPEPTTDCFVAVMHGETEGTVPGNALVVDPEKPFRKLNPFGNTFLNRFMCAQLPNQVLESISIIDTPGILSGAKQRVSRGYDFPAVLRWFAERVDLIILLFDAHKLEISDEFSEAIGALRGHEDKIRVVLNKADMVETQQLMRVYGALMWALGKVVGTPEVLRVYIGSFWSQPLLVPDNRRLFELEEQDLFRDIQGLPRHAALRKLNDLVKRARLVRVHAYIISYLKKEMPTVFGKENKKKQLILKLPVIFAKIQLEHHISPGDFPDCQKMQELLMAHDFTKFHSLKPKLLEALDDMLAQDIAKLMPLLRQEELESVEAGVAGGAFEGTRMGPFVERGPDEAIEDGEEGSEDDAEWVVTKDKSKYDEIFYNLAPADGKLSGSKAKTWMVGTKLPNSVLGRIWKLSDVDRDGMLDDEEFALASHLIEAKLEGHGLPTNLPRRLVPPSKRRQKGSAE,soluble
17,MGSDKIHHHHHHADVIVPEQPVPVVAVPAFSWAGFYLGGQVGNFSSKTALSYLGDEKTGKWTPVKKEFVPKLSGFVGGIYAGSNFDINNGFIIGIDTDVMWSGKKNTKIITWPEVPPEVSSEKKVERVSVGTNQDTSAEVTNGALSHTLKQKWFGATRVKVGFVVDRMMPYIAGGVAYTQLQNIFEKEADKTKKAIDISNVIHDEKKTMVGYTLGGGIDFAMTDNVIVRAEYRYSDYGKKKFADEKIEMRYKTNDFRVGVAYKF,not soluble
18,LTRFSAGYGSDSMLEASADIGRRFGPDDSVGIRINAAQRGGETAIDGERTRTTVFALGLDWRGERARLSADIGYQDNRLKRARPNVTLAGDAAKVPGAPDAGSNYAQPWSYSNERDVFGTLRGEYDFNDRITGWAAYGMRQSKEENSLANLNGVNGAGQGKFYRFDNAREDTVNTGEIGLRAKARTGPVGHELVASASYFDLEKKNAYVMDFFNQFDTSIYDPVSYAKPAISSTAFRGNDMDDPAKQGVIRLASYALGDTMSFFDDKVLLTAGIRHQRLYQRDYSYDTGIGGTPYEQSHNSPAAGLVVRVTPQVSLYANYIEALSAGDTAPQTANGLPVVNHGESLAPYVSKQKEVGVKFEHDGLGGGLALFSTDKPRGFVGDDQVFRASGKDRHRGVELTTYGELTRSVRVLGGLTWLDAKQLSTGNAATDGKRVIGVPRFQANLGVEWDIPGVQGLTVDGRVVYTGSSYADAANTLEVPGWTRLDAGLRYMTDIGGHLVTWRARVENIANRDYWSSVGGYPGNGYLVLGGPRTFTLSASMEF,not soluble
19,MGSDKIHHHHHHMSAFNAVQVGRRVLAVEADALRVLADSLGEAFANAVETIFNAKGRVVCTGMGKSGHVARKIAATLASTGTQAMFVHPAEASHGDLGMIGPDDVVLALSKSGAGRELADTLAYAKRFSIPLIAMTAVADSPLGQAGDILLLLPDAPEGTAEVNAPTTSTTLQIALGDAIAVALLERRGFTASDFRVFHPGGKLGAMLRTVGDLMHGADELPLVAADAAMPDALLVMSEKRFGAVGVVDNAGHLAGLITDGDLRRHMDGLLTHTAGEVMTHAPLTIGPGALAAEALKVMNERRITVLFVVERERPVGILHVHDLLRAGVI,not soluble
20,NTLKAGQTQSFNDWFPDDNFASEVAAAFEMQATDTISEEQLATLTSLDCHNSSITDMTGIEKLTGLTKLICTSNNITTLDLSQNTNLTYLACDSNKLTNLDVTPLTKLTYLNCDTNKLTKLDVSQNPLLTYLNCARNTLTEIDVSHNTQLTELDCHLNKKITKLDVTPQTQLTTLDCSFNKITELDVSQNKLLNRLNCDTNNITKLDLNQNIQLTFLDCSSNKLTEIDVTPLTQLTYFDCSVNPLTELDVSTLSKLTTLHCIQTDLLEIDLTHNTQLIYFQAEGCRKIKELDVTHNTQLYLLDCQAAGITELDLSQNPKLVYLYLNNTELTELDVSHNTKLKSLSCVNAHIQDFSSVGKIPALNNNFEAEGQTITMPKETLTNNSLTIAVSPDLLDQFGNPMNIEPGDGGVYDQATNTITWENLSTDNPAVTYTFTSENGAIVGTVTTPFEAPQPIK,soluble
